Data published in patent publication US7282356B2, “D-aminoacylase mutants” (Daicel Chemical Industries, Ltd., priority 2002, dated 2007).

Assays:
[1] = Conversion of 5% or 10% N-acetyl-DL-tryptophan by E. coli transformant cells; format: cell-based, E. coli HB101; settings: 25° C.
Description: Cells of E. coli HB101 strain were transformed with the expression plasmids for the three mutant D-aminoacylases AD-0103, AD-1064, and AD-1927 obtained in Example 8, whose inhibition was impaired. The E. coli cells were inoculated in liquid LB media, and cultured at 30° C. overnight. Then, the transformants were inoculated in 2x YT (2% Bacto tryptone, 1% Bacto-yeast extract, 1.0% sodium chloride, pH 7.2) media and incubated at 30° C. for 18 hours. The E. coli cells were harvested. The bacterial cells were used to hydrolyze N-acetyl-D-tryptophan.
Cells of the respective E. coli transformants prepared from 5 ml of liquid culture media were incubated in 10 ml of reaction solutions which comprised 300 mM Tris-hydrochloride buffer (pH 8.0) containing 5% or 10% N-acetyl-DL-tryptophan at 25° C. while being stirred. An E. coli HB101 strain containing the plasmid pSL-ADD6 with the wild-type D-aminoacylase was used as a control. In assays using 5% N-acetyl-DL-tryptophan as the substrate, the yield was about 50% with the wild type, whereas the yield was about 100% with any one of the four mutants. In assays using 10% N-acetyl-DL-tryptophan as the substrate, the yield was about 15% with the wild type, whereas the yield was about 25% with each of the mutants AD-0103 and AD-1089; the yield was about 40% with the mutant AD-1064, and the yield was about 60% with the mutant AD-1927. […]

[2] = Reaction of third generation mutants with 7% N-acetyl-DL-tryptophan in microtiter plate; format: cell-based, E. coli HB101; settings: 25° C., 8 hours
Description: With a conventional method, recombinant plasmid DNAs were purified from total 10 strains of E. coli JM109 transformant obtained in Example 16. Cells of E. coli HB101 strain were transformed with the recombinant plasmid DNAs to prepare transformants. Each colony grown on a culture plate was inoculated with a toothpick to a well of a microtiter plate which contained 150 μl of LB culture medium containing 50 μg/ml ampicillin and 0.02 mM IPTG, and then the microtiter plate was covered with Breathable Sealing Membrane (Nalgene). The microtiter plate was incubated at 37° C. for 18 hours while being shaken. The reaction was carried out using total 200 μl of a reaction solution containing 100 μl of culture medium solution, 300 mM Tris-hydrochloride buffer (pH 8.0), 7% N-acetyl-DL-tryptophan, and distilled water in each well of a microtiter plate at 25° C. for 8 hours while being shaken. When all of the N-acetyl-D-tryptophan contained in substrate is converted to D-tryptophan, the yield is taken as 100%. While the yield was about 70% with the wild type, the yield was roughly 100% with a third generation mutant obtained in […]. Thus, the competitive inhibition was confirmed to be impaired in the third generation mutants.

[3] = Hydrolysis of 15% N-acetyl-DL-tryptophan by E. coli cells; format: cell-based, E. coli HB101; settings: 25° C., 24 hours
Description: 3AD-0013(M347Q/R374H) and 3AD-0089(A154V/M347A/R374P) are mutants with two amino acid substitutions and with three amino acid substitutions of the third generation mutants obtained in Example 17, respectively. Cells of E. coli HB101 strain transformed with plasmids expressing the two types of mutants were each inoculated to a liquid LB medium, and cultured at 30° C. overnight. Then, the E. coli cells were inoculated to a culture medium (2x YT) and incubated at 30° C. for 18 hours. The cells of E. coli were harvested, and used to hydrolyze N-acetyl-D-tryptophan.
10 ml of a reaction solution containing E. coli cells prepared from 5 mL of culture medium solution, 300 mM Tris-hydrochloride buffer (pH 8.0), and 15% N-acetyl-DL-tryptophan was incubated at 25° C. for 24 hours while being stirred. E. coli HB101 strain containing the wild-type pSL-ADD6 was used as a control. While the yield was about 15% with the wild type, the yields were about 30% and about 80% with the mutant 3AD-0013 having two amino acid substitutions and the mutant 3AD-0089 having three amino acid substitutions, respectively. Thus, the third generation mutants obtained in […] were confirmed to have higher processability in the hydrolysis of higher concentrations of N-acetyl-DL-tryptophan.

[4] = Production of D-tryptophan from N-acetyl-DL-tryptophan using cell-free extract (10 U/mL); format: biochemical; settings: for Yield of D-Trp: 10 U/mL reaction solution, 30° C., 24 hours
Description: Wild-type or mutant D-aminoacylase extract can be obtained by, for example, recovering microbial cells by filtration and centrifugation, suspending them in a buffer, and disrupting them using a Bead-Beater (BIOSPEC PRODUCT). Reaction solutions containing 10 U/mL enzyme thus obtained 300 mM Tris-hydrochloride buffer (pH 8.0), and 12%, 15%, 17%, 20% or 22% N-acetyl-DL-tryptophan, are incubated at 30° C. for 24 hours while being shaken. Thus, D-tryptophan can be produced in 80% or higher yield from 12%, 15%, or 17% substrate, or in 50% or higher yield from 20% or 22% substrate.
0.5 ml of a reaction solution containing 5 units of cell-free extract obtained in the step of enzyme purification described in Example 19 or Example 23, 12%, 15%, 17%, 20%, or 22% N-acetyl-DL-tryptophan, and 300 mM Tris-hydrochloride buffer (pH 8.0) was incubated at 30° C. for 24 hours while being stirred. While with the wild type the yield of D-tryptophan was lower than 10% at any substrate concentration, with the mutant 3AD-0089 the yield of D-tryptophan was 80% or higher at substrate concentrations of up to 17%. Furthermore, the mutant was confirmed to enable the production of D-tryptophan in 66% yield in the presence of 20% substrate, or in 58% yield in the presence of 22% substrate.

[5] = according to references; cited from earlier work

B1: wild-type: D-aminoacylase derived from Alcaligenes denitrificans subsp. xylosoxydans MI-4, SEQ ID NO: 1 (protein)
chain: MSQSDSQPFDLLLAGGTLIDGSNTPGRRADLGVRGDRIAAIGDLSDAAAHTRVDVSGLVVAPGFIDSHTHDDNYLLRRRDMTPKISQGVTTVVTGNCGISLAPLAHANPPAPLDLLDEGGSYRFERFADYLDALRATPAAVNAACMVGHSTLRAAVMPDLQRAATDEEIAAMRDLAEEAMASGAIGISTGAFYPPAARATTEEIIEVCRPLSAHGGIYATHMRDEGEHIVAALEETFRIGRELDVPVVISHHKVMGQPNFGRSRETLPLIEAAMARQDVSLDAYPYVAGSTMLKQDRVLLAGRTIITWCKPFPELSGRDLDEVAAERGKSKYDVVPELQPAGAIYFMMDEPDVQRILAFGPTMIGSDGLPHDERPHPRLWGTFPRVLGHYARDLGLFPLETAVWKMTGLTAARFGLAGRGQLQAGYFADLVVFDPATVADTATFEHPTERAAGIHSVYVNGAPVWQEQAFTGQHAGRVLARTAA
modifications: Alcaligenes denitrificans subsp. xylosoxydans MI-4
yield ([1]; 5% N-acetyl-DL-tryptophan): about 50% | yield ([1]; 10% N-acetyl-DL-tryptophan): about 15% | yield [2]: about 70% | yield [3]: about 15% | Yield of D-Trp ([4]; 12% N-Ac-DL-Trp): 9.4% | Yield of D-Trp ([4]; 15% N-Ac-DL-Trp): 3.5% | Yield of D-Trp ([4]; 17% N-Ac-DL-Trp): 1.8% | Yield of D-Trp ([4]; 20% N-Ac-DL-Trp): 0.5% | Yield of D-Trp ([4]; 22% N-Ac-DL-Trp): 0.5% | yield of D-tryptophan ([4]; at any substrate concentration (12% to 22%)): lower than 10% | activity to N-acetyl-D-tryptophan [5]: ≤ 20 U/mg
